Consider three molecules from patent publication US20220387586A1 (Hoffmann-La Roche, published 2022).

Assay [1] has as its target T1, PD1 on PD1+LAG3+ human U2OS cells (UniProt Q15116 25-288). Briefly: cell-based or functional assay.
In assay [2] the target is T1, PD1 on PD1+LAG3+ human U2OS cells. The experiment in a line: cell-based or functional assay. The source holds these as a separate data set.
Assay [3] deals with T2, recombinant Human LAG-3 Fc Chimera Protein (R&D Systems, 2319-L3) (human, UniProt P18627 29-450).
T2 construct: Bought protein; also called huLAG3; not shown: Fc part of the chimera
T2 sequence: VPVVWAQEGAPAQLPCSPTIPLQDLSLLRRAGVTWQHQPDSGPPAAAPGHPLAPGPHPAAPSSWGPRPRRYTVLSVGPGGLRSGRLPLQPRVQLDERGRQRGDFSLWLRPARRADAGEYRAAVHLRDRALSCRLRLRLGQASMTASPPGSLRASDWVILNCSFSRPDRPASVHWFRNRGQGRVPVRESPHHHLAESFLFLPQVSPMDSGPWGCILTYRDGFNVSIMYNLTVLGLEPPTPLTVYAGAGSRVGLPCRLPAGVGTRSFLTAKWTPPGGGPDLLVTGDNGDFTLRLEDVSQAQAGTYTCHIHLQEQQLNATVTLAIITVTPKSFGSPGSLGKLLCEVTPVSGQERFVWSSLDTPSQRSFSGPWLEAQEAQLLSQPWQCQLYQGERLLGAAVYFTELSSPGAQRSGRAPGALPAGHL
The experiment in a line: ELISA on coated Human LAG-3 Fc Chimera (rel. EC50). The protocol: After washing (3×90 μl/well with PBST-buffer) each well was incubated with 90 μl blocking buffer (PBS+2% BSA+0.05% Tween 20) for 1 h at room temperature. […] After washing (3×90 μl/well with PBST-buffer) 25 μl/well goat anti-Human Ig κ chain antibody-HRP conjugate (Milipore, AP502P) was added in a 1:2000 dilution and incubated at RT for 1 h. After washing (3×90 μl/well with PBST-buffer) 25 μl/well TMB substrate (Roche, 11835033001) was added and incubated for 2-10 min. Measurement took place on a Tecan Safire 2 instrument at 370/492 nm.
On the technique in general: In an ELISA, binding on a coated surface is turned into a signal by an enzyme label.

Assay [4] has as its target T3, biotinylated PD1-ECD-AviHis (human, UniProt Q15116 25-170, biotinylated).
T3 construct: also called huPD1; hu PD1; not shown: Avi-His tag
Briefly: ELISA on coated biotinylated PD1-ECD-AviHis (rel. EC50). The protocol: After washing (3×90 μl/well with PBST-buffer) 25 μl/well goat-anti-human H+L-POD (JIR, JIR109-036-098) was added in 1:5000 dilution and incubated at RT for 1 h on a shaker. After washing (3×90 μl/well with PBST-buffer) 25 μl/well of TMB substrate (Roche, 11835033001) was added and incubated until OD 2-3. Measurement took place at 370/492 nm.

The target in assay [5] is T4, LAG3 on cells (recombinant CHO cells expressing Lag3) (human, UniProt P18627 29-525).
T4 construct: The cell ELISA paragraphs say only 'Lag3'; also called CHO-LAG3; Lag3 cells
T4 sequence: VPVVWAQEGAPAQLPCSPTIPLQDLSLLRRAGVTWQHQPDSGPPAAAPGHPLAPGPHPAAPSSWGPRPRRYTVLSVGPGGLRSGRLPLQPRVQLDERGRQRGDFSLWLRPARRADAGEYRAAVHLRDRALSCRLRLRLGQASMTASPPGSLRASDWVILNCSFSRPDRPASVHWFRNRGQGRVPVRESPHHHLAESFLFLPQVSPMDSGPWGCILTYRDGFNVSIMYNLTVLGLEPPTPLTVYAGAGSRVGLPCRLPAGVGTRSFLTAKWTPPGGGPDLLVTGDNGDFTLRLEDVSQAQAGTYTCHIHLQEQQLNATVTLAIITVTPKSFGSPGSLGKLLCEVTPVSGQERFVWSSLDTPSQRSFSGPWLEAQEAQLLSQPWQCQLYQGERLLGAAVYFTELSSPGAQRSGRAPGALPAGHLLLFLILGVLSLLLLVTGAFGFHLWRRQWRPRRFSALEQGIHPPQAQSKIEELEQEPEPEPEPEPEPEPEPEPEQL
The experiment in a line: cell ELISA on recombinant CHO cells expressing Lag3 (rel. EC50). The protocol: After washing (1×90 μl in PBST) cells were fixed by addition of 30 μl/well glutaraldehyde to a final concentration of 0.05% (Sigma Cat.No: G5882), 10 min at room temperature. After washing (3×90 μl/well with PBST-buffer) 25 μl/well goat anti-Human Ig κ chain antibody-HRP conjugate (Milipore, AP502P) was added in a 1:1000 dilution and incubated at RT for 1 h. After washing (3×90 μl/well with PBST-buffer) 25 μl/well TMB substrate (Roche, 11835033001) was added and incubated for 6-10 min. Measurement took place on a Tecan Safire 2 instrument at 370/492 nm.

For assay [6], the target named is T5, full-length human PD1 on cells (human, UniProt Q15116 25-288).
T5 construct: also called CHO-PD1
T5 sequence (Q15116 25-288 limits assumed): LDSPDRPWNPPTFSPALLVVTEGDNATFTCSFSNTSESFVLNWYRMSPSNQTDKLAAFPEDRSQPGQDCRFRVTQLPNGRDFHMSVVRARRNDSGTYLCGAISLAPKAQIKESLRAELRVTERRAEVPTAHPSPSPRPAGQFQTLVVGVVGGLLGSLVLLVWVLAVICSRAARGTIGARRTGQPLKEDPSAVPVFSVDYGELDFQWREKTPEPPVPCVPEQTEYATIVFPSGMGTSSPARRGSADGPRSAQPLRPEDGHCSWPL
Briefly: cell ELISA on CHO-K1 cells expressing full-length human PD1 (rel. EC50). The protocol: (to avoid internalization). After washing carefully (1×90 μl/well PBST) cells were fixed by adding 30 μl/well 0.05% Glutaraldehyde (Sigma, Cat.No: G5882, 25%) diluted in 1×PBS-buffer and incubated for 10 min at RT. After washing (3×90 μl/well PBST) 25 μl/well secondary antibody was added for detection: goat-anti-human H+L-POD (JIR, JIR109-036-088)/Sheep-anti-mouse-POD (GE NA9310) followed by 1 h incubation at RT on shaker. After washing (3×90 μl/well PBST) 25 μl/well TMB substrate solution (Roche 11835033001) was added and incubated until OD 1.0-2.0. Plates were measured at 370/492 nm.

Another assay addresses T6, biotinylated-Lag3 (UniProt P18627 23-450, limits assumed, biotinylated).
T6 construct: Probably a human LAG3 ECD construct; also called Lag3 (MHCII/ELISA)
T6 sequence (looked up): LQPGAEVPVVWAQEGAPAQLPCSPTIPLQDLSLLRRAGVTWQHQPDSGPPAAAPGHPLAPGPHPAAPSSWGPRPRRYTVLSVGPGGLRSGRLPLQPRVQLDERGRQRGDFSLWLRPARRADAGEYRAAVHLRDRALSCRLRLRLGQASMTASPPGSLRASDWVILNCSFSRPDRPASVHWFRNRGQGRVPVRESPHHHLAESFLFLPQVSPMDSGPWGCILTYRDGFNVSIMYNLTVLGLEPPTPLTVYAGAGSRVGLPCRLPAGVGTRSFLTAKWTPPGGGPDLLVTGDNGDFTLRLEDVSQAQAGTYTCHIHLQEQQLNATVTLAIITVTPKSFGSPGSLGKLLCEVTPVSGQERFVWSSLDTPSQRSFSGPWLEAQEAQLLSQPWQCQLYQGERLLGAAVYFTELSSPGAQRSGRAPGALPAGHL
The experiment in a line: ELISA, inhibition of biotinylated-Lag3 binding to MHC-II on A375 cells (competitor MHC-II). The protocol: 25 μl/well of A375 cells (10000 cells/well) were seeded into tissue culture treated 384-well plates (Corning, 3701) and incubated at 37° C. overnight. […] After washing (1×90 μl in PBST) cells were fixed by addition of 30 μl/well glutaraldehyde to a final concentration of 0.05% (Sigma Cat.No: G5882), 10 min at room temperature. After washing (3×90 μl/well with PBST-buffer) 25 μl/well Poly-HRP40-Streptavidin (Fitzgerald, 65R-S104PHRPx) was added in a 1:2000 or 1:8000 dilution and incubated at RT for 1 h. After washing (3×90 μl/well with PBST-buffer) 25 μl/well TMB substrate (Roche, 11835033001) was added and incubated for 2 to 10 min. Measurement took place on a Tecan Safire 2 instrument at 370/492 nm.

Assay [7] concerns the target T1, PD1 on PD1+LAG3+ human U2OS cells. Briefly: cellular PD1/LAG3 dimerization assay on PD1+LAG3+ U2OS cells, chemoluminescence; the signal needs PD1 and LAG3 bound at once. The protocol: (§1) For this specific interaction, the cytosolic C-terminal ends of both receptors were individually fused to heterologous subunits of a reporter enzyme.
(§2) On the next day cell medium was discarded and replaced by fresh medium. Antibody or ligand dilutions were prepared and titrated amounts of indicated (bispecific) antibodies were added and incubated at 37° C. for 2 hours. Next, a substrate/buffer mix (e.g. PathHunterFlash detection reagent) was added and again incubated for 1h. For measuring chemoluminescence induced upon simultaneous binding and dimerization a Tecan infinite reader was used.

Assay [8] has as its target T7, LAG3 on PD1+LAG3+ human U2OS cells (Homo sapiens (Human), UniProt P18627 23-525).
T7 construct: also called cellular LAG3 (dimerization assay); not shown: subunit of the reporter enzyme fused to the cytosolic C-terminus
T7 sequence: T4 sequence
The description is as above. The protocol: as §1, §2

Read-outs that look alike come from different tables or passages of the source.

T1 sequence (Q15116 25-288): as the sequence (Q15116 25-288 limits assumed) above
T3 sequence (Q15116 25-170): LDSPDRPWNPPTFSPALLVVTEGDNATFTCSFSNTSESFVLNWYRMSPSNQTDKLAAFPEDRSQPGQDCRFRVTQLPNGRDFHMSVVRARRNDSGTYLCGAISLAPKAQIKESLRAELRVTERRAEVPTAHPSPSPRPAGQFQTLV

B1: PD1/LAG3 8311 (bispecific antibody, human IgG1, kappa, L234A L235A)
heavy 1: not shown
heavy 2: EVQLVESGGGLVQPGGSLRLACAASGFTFSDYAMSWVRQAPGKGLEWVSGIDNSGYYTYYTDSVKGRFTISRDDVKNTLYLQMNSLRAEDTAVYLCTKTHSGLIVNDAFDIWGQGTMVTVSSASTKGPSVFPLAPSSKSTSGGTAALGCLVEDYFPEPVTVSWNSGALTSGVHTFPAVLQSSGLYSLSSVVTVPSSSLGTQTYICNVNHKPSNTKVDEKVEPKSCDKTHTCPPCPAPEAAGGPSVFLFPPKPKDTLMISRTPEVTCVVVDVSHEDPEVKFNWYVDGVEVHNAKTKPREEQYNSTYRVVSVLTVLHQDWLNGKEYKCKVSNKALGAPIEKTISKAKGQPREPQVCTLPPSRDELTKNQVSLSCAVKGFYPSDIAVEWESNGQPENNYKTTPPVLDSDGSFFLVSKLTVDKSRWQQGNVFSCSVMHEALHNHYTQKSLSLSPGK
light 1: DIVMTQSPDSLAVSLGERATINCKASESVDTSDNSFIHWYQQKPGQSPKLLIYRSSTLESGVPDRFSGSGSGTDFTLTISSLQAEDVAVYYCQQNYDVPWTFGQGTKVEIKSSASTKGPSVFPLAPSSKSTSGGTAALGCLVKDYFPEPVTVSWNSGALTSGVHTFPAVLQSSGLYSLSSVVTVPSSSLGTQTYICNVNHKPSNTKVDKKVEPKSC
light 2: not shown
notes: 2+1 format: two LAG3 Fabs, one PD1 crossFab fused to the C-terminus of the Fc knob heavy chain
With B1, the “EC50 [pM], dimerization binding assay (chemoluminescence)” value was 119 pM in assay [1] and 124 pM in assay [2]. Further, the EC50 was 0.06 nM in [3], 0.05 nM in assay [4], 0.17 nM in assay [5] and 0.32 nM in [6]. This molecule showed an IC50 in the assay with biotinylated-Lag3 of 0.39 nM.

B2: PD1/LAG3 1252 (bispecific antibody, human IgG1, kappa, L234A L235A)
heavy 1: not shown
heavy 2: QVQLQQWGAGLLKPSETLSLTCAVYGGSFSDYYWNWIRQPPGKGLEWIGEINHNGNTNSNPSLKSRVTLSLDTSKNQFSLKLRSVTAADTAVYYCAFGYSDYEYNWFDPWGQGTLVTVSSASTKGPSVFPLAPSSKSTSGGTAALGCLVEDYFPEPVTVSWNSGALTSGVHTFPAVLQSSGLYSLSSVVTVPSSSLGTQTYICNVNHKPSNTKVDEKVEPKSCDKTHTCPPCPAPEAAGGPSVFLFPPKPKDTLMISRTPEVTCVVVDVSHEDPEVKFNWYVDGVEVHNAKTKPREEQYNSTYRVVSVLTVLHQDWLNGKEYKCKVSNKALGAPIEKTISKAKGQPREPQVCTLPPSRDELTKNQVSLSCAVKGFYPSDIAVEWESNGQPENNYKTTPPVLDSDGSFFLVSKLTVDKSRWQQGNVFSCSVMHEALHNHYTQKSLSLSPGK
light 1: B1 light 1
light 2: not shown
notes: as for B1
Consider B2, for which the 50% effective concentration (EC50) was found to be 0.02 nM in [3], 0.03 nM in assay [4], 0.64 nM in assay [5] and 0.31 nM in assay [6]. The molecule also showed a half-inhibitory concentration (IC50) with biotinylated-Lag3 of 0.47 nM. Moreover, the concentration giving a half-maximal response (EC50 (read off the curve)) in assay [7] and in assay [8] was about 0.06 µg/mL throughout.

B3: 0918 (bispecific antibody, human IgG1, kappa, L234A L235A)
heavy chain 1 (aLAG3 25F7 heavy chain, hole, with PD1 0376 VH at the C-terminus): QVQLQQWGAGLLKPSETLSLTCAVYGGSFSDYYWNWIRQPPGKGLEWIGEINHNGNTNSNPSLKSRVTLSLDTSKNQFSLKLRSVTAADTAVYYCAFGYSDYEYNWFDPWGQGTLVTVSSASTKGPSVFPLAPSSKSTSGGTAALGCLVKDYFPEPVTVSWNSGALTSGVHTFPAVLQSSGLYSLSSVVTVPSSSLGTQTYICNVNHKPSNTKVDKKVEPKSCDKTHTCPPCPAPEAAGGPSVFLFPPKPKDTLMISRTPEVTCVVVDVSHEDPEVKFNWYVDGVEVHNAKTKPREEQYNSTYRVVSVLTVLHQDWLNGKEYKCKVSNKALGAPIEKTISKAKGQPREPQVCTLPPSRDELTKNQVSLSCAVKGFYPSDIAVEWESNGQPENNYKTTPPVLDSDGSFFLVSKLTVDKSRWQQGNVFSCSVMHEALHNHYTQKSLSLSPGGGGGSGGGGSGGGGSGGGGSEVQLLESGGGLVQPGGSLRLSCAASGFSFSSYTMSWVRQAPGKGLEWVATISGGGRDIYYPDSVKGRFTISRDNSKNTLYLQMNSLRAEDTAVYYCVLLTGRVYFALDSWGQGTLVTVSS
heavy chain 2 (aLAG3 25F7 heavy chain, knob, with PD1 0376 VL at the C-terminus): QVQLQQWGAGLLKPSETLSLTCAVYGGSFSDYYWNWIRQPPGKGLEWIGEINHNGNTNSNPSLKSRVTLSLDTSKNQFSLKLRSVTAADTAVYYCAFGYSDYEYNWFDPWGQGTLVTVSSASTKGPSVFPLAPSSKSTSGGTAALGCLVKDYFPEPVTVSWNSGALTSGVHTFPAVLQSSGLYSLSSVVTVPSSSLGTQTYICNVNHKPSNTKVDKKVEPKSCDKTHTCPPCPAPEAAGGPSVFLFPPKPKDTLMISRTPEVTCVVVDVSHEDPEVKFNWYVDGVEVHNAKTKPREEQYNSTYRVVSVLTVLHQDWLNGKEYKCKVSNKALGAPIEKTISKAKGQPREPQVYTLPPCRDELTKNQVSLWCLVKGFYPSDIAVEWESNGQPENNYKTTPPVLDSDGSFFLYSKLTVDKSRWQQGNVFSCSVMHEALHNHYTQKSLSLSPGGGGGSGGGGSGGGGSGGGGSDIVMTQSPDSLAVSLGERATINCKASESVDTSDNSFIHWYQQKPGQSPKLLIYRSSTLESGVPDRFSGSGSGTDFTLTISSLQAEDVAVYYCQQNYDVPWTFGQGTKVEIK
light chain (aLAG3 25F7): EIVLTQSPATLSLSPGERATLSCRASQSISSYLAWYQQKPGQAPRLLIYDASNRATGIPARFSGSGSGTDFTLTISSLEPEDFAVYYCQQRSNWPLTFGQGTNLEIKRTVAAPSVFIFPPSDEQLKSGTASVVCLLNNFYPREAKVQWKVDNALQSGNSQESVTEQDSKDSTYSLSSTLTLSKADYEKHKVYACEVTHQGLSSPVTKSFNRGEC
notes: also called PD1/LAG3 0918
Consider B3, for which the concentration for a half-maximal effect (EC50 (read off the curve)) in assay [7] was about 0.4 µg/mL.

Broadly, the EC50 is the concentration needed to bring the measured effect to its halfway point. In general, IC50 refers to the concentration that inhibits the measured activity by half. Usually EC50 (read off the curve) stands for the concentration that produces a half-maximal response. A lower EC50 (read off the curve) goes with greater potency.
